This note sets out measurements from patent publication EP4467153A1, “CONSTRAINED PEPTIDE INHIBITORS OF LRRK2-FADD INTERACTIONS” (University of Georgia Research Foundation, Inc., priority 2023, dated 2024).

“Also recorded” adds a separate entry of the source. Positions of bridges follow the written chain, without caps; N, C: chain ends. Non-standard residues stand in square brackets, D forms with d. Primed or numbered codes have the meaning given here. FAM = 5(6)-carboxyfluorescein label; S5 = C=CCCC[C@](C)(N)C(=O)O; PEG3′ = PEG3 spacer

In data set [1] the target is T1, LRRK2-FADD PPI (Flag G2019S-LRRK2 and V5-FADD) (Homo sapiens, UniProt Q5S007, G2019S).
T1 construct: expressed in transfected cells; host or cells: HEK293T
T1 sequence (Q5S007 whole entry G2019S): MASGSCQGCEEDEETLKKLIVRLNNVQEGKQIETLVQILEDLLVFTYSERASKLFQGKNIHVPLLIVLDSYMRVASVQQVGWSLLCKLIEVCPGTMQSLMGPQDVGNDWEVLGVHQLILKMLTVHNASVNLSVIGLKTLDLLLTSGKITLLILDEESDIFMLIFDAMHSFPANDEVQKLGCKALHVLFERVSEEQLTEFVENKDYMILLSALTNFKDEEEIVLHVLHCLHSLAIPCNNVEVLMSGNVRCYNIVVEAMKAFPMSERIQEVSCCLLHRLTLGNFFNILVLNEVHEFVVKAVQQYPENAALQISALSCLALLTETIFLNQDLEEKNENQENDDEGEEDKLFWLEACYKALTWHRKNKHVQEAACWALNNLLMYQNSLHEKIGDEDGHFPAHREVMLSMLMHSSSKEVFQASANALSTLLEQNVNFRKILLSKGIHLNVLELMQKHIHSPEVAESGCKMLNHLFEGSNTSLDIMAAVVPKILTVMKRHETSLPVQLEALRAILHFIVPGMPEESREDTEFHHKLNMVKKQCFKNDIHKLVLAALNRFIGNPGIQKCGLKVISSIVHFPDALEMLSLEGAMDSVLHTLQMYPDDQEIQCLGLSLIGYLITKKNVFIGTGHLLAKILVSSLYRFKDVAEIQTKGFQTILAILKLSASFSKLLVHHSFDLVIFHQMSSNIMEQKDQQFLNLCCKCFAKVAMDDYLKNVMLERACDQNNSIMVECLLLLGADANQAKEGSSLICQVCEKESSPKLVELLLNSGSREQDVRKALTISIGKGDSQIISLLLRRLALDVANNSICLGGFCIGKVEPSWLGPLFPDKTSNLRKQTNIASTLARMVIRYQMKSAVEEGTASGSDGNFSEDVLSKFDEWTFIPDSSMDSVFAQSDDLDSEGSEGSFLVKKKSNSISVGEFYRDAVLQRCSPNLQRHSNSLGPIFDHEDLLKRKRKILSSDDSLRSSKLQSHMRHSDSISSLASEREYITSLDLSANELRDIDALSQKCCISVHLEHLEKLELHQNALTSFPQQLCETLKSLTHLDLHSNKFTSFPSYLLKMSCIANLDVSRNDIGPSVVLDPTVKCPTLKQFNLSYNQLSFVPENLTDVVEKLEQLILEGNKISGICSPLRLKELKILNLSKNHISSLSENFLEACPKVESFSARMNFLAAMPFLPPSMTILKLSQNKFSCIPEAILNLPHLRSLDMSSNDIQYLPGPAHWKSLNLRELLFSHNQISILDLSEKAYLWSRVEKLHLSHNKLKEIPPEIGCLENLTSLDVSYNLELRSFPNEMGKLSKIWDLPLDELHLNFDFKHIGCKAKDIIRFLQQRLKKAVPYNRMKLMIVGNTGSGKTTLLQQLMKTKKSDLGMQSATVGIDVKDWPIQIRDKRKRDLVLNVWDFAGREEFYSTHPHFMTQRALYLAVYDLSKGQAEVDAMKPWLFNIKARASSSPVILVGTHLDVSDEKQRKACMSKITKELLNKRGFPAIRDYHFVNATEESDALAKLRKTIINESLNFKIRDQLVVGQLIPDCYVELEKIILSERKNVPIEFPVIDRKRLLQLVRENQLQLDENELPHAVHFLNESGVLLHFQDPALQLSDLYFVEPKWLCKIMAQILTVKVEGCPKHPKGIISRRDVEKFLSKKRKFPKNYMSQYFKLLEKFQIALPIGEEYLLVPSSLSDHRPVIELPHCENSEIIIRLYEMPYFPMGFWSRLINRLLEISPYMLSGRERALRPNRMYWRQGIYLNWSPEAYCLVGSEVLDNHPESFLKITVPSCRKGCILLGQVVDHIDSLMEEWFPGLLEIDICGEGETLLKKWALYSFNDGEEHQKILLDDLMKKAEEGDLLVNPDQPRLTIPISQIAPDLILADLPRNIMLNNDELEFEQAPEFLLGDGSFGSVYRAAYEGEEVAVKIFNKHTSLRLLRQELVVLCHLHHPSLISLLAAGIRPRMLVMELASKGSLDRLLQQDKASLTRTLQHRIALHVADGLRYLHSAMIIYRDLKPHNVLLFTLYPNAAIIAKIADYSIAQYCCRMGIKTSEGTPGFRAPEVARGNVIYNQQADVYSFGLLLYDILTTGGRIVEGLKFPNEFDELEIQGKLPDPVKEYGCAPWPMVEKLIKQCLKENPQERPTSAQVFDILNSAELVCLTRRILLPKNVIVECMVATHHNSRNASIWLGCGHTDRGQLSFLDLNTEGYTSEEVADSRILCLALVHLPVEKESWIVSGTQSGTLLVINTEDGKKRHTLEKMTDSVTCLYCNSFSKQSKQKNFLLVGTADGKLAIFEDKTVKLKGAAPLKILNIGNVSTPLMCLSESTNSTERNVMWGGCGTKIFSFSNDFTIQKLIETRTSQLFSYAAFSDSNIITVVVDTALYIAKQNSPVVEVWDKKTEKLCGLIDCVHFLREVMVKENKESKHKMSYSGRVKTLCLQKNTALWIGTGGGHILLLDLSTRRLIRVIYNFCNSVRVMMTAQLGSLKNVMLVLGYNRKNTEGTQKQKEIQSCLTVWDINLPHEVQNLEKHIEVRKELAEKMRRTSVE
Briefly: Co-immunoprecipitation of LRRK2-FADD interaction in transfected HEK293T cells. The format is cell-based. On the procedure: It was then assessed whether this peptide library (FARM1-FARM5) could disrupt the interaction between over-expressed Flag G2019S-LRRK2 and V5-FADD by co-immunoprecipitation. Flag-LRRK2 was purified on anti-Flag resin and the eluate as well as the protein extract (input) separated by SDS-PAGE, with the membranes probed for V5 (FADD) and Flag (LRRK2). The transfected cells were treated with the indicated peptide (10 µM) for a total of 48 hr prior to collection. […] To minimize the use of primary mouse cortical neuron cultures, FARMS was used in subsequent experiments to examine the potential neuroprotective effects of LRRK2-FADD disruption.
Assessment of LRRK2-FADD interaction. Co-immunoprecipitation was undertaken to determine the effects of the stapled peptides on the LRRK2-FADD PPI, as previously described. Briefly, 10cm plates of HEK293T cells transiently expressing Flag-WT or mutant LRRK2 and V5-FADD (at a 3:1 ratio), and treated with different concentrations of FARM peptides (as indicated in the Figure legends), were washed in PBS and lysed in co-IP buffer (20mM HEPES, pH7.4; 150 mM NaCl; 0.1% NP40; 2 mM EGTA; 2 mM MgCl2; 10% glycerol, pH 7.2; protease and phosphatase cocktail [Agilent Technologies]) for 30 min on ice followed by 15 strokes with a Dounce glass homogenizer, and centrifugation at 13000 rpm for 15 min to remove cellular debris. Following pre-clearing with IgG-coupled beads, 40 µl of washed anti-Flag resin (Sigma-Aldrich) per mg of protein was added and the samples incubated under rotation overnight at 4°C. The following morning, the beads were centrifuged and washed a total of 5X with coIP buffer, before elution in 2X SDS sample buffer at 95°C for 10 min. The eluate (and input) was separated by SDS-PAGE and membranes probed with anti-Flag (LRRK2) and V5 (FADD).

Another data set concerns primary cortical neurons. The data set can be described thus: Uptake of FAM-labeled peptide in primary cortical neurons (confocal imaging). The format is cell-based, mouse. As to conditions: neurons expressing G2019S-LRRK2, 1 µM.
The subject of the next data set is HEK293T cells. The data set can be described thus: Cellular uptake of FAM-labeled peptides in HEK293T cells (fluorescence imaging). The format is cell-based. The text has this:
• FIGs. 1A-1D depict the design and structure of constrained peptides targeting the LRRK2-FADD PPI. (FIG. 1A) Structural representation of the region of the LRRK2 ARM domain in which the FADD-binding motif is located, shown with the fragment of the FADD death domain that binds LRRK2. (FIG. 1B) Highlight schematic of the relevant binding domains within LRRK2 and FADD, and the corresponding amino acid sequence that mediates this PPI is highlighted. (FIG. 1C) Schematic representation of the solid phase peptide synthesis, highlighting the placement of the synthetic amino acids for the placement of the peptide staple. (FIG. 1D) Sequences of the five stapled peptides synthesized, with the position of the synthetic residues in each peptide indicated by an asterisk. • FIGs. 2A-2B depict the cellular uptake of stapled vs. native peptides. (FIG. 2A) HEK293T cells were incubated with 5 µM of non-stapled control or constrained FARMS for a period of 24 hr. […] In the eluate, a dose-dependent reduction of FADD was detected with increasing concentrations of FARMS. […] (FIG. 4B) The percentage of transfected neurons with apoptotic nuclear features was determined in a blinded fashion. […] (FIG. 5B) The band intensities in FIG. 5A were quantified using Image J (n=2). […] (FIG. 5C) Phosphorylation of endogenous RablO in HEK293T cells by over-expressed WT or R1441C-LRRK2 was determined by Western blot, as in FIG. 5A. […]

“FARM5: FAM-labeled hydrocarbon-stapled FADD Armadillo domain peptide; mass fits SEQ ID NO. 6 KVADLVQEVQQAXDLQXRSK ({FAM-PEG3′}-KVADLVQEVQQA[S5]DLQ[S5]RSK-NH2; staple 13-17; also: FAM label, optionally 5(6)FAM-PEG3 on N-terminal lysine) [FAM-labeled hydrocarbon-stapled FADD Armadillo domain peptide; 6 …XDLQXRSK]”: in data set [1] (10 µM, 48 hr, normalized to immunoprecipitated Flag-LRRK2, listed as FARMS), the “amount of FADD that co-purified with G2019S-LRRK2 (LRRK2-FADD interaction)” value was “greatest, and most consistent, reduction; also recorded: reduced the interaction between LRRK2 and FADD”. In addition, the “dose-dependency of the disruption of the LRRK2-FADD PPI” value in data set [1] (0.1 to 10 µM, 24hr) is “progressive reduction in the LRRK2-FADD PPI with increasing doses”. The “fluorescent signal from the FAM peptide tag in neurons” value with primary cortical neurons is reported as “diffusely distributed throughout most neurons”. In addition, the “cellular uptake (permeation of cells)” value in the data set with HEK293T cells (5 µM FAM-labeled peptide, 24 hr) was “clear diffuse fluorescent signal along with a few visible puncta was observed throughout cells”. Also, the “dose-dependency of uptake of FAM-labeled peptide” value in the data set on HEK293T cells (0.1 or 10 µM, 24hr) is reported as “dose-dependent”.
